System: T1, MG3-6/3-4 chimera (MG3-6 1-742 + MG3-4 743-1134) (synthetic construct)
T1 sequence: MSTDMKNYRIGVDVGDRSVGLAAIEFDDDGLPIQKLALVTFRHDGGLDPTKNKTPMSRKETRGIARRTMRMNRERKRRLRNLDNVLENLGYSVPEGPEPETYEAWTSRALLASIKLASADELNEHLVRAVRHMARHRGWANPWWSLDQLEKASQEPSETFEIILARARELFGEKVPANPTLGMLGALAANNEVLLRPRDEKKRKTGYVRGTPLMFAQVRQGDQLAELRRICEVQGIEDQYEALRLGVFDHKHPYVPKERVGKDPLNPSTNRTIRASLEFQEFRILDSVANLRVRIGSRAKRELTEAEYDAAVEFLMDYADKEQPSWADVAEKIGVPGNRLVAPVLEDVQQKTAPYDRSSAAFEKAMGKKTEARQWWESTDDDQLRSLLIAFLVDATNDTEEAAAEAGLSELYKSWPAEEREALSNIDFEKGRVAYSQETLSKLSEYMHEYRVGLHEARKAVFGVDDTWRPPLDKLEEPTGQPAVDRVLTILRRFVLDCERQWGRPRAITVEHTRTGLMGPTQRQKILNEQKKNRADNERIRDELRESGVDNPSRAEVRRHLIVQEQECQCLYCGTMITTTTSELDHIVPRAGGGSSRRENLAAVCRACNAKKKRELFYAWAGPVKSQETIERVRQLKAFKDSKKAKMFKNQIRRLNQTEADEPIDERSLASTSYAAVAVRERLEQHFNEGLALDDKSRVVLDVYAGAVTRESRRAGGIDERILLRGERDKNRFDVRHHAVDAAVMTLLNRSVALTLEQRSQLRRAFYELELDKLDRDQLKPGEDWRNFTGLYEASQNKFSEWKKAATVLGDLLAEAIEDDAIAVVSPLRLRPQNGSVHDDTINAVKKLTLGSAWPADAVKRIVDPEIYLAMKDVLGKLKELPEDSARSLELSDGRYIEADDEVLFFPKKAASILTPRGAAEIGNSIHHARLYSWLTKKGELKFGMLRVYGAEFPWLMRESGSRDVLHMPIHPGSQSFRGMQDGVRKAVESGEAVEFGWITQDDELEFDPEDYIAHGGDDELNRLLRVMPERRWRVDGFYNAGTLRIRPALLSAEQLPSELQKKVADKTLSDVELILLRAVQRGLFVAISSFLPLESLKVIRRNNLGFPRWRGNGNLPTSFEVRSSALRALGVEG
Assay: cell_activity
Details: 2'-OMe and PS at termini; Hep3B; 25.0 % in PHH; PAM NNAAA(A/T)N

With “CCAUCUAUCAGCUGGGAAGAUAGUUGAGAAUCGAAAGAUUCUUAAUAAGGCAUCCUUCCGAUGCUGACUUCUCACCGUCCGUUUUCCAAUAGGAGCGGGCGGUAUGUUUU / CCATCTATCAGCTGGGAAGATATCAAATG / CATTTGATATCTTCCCAGCTGATAGATGG [hH364-32 sgRNA ; human HAO1 hH364-32 target]” the activity was 60 % indel.

From patent US20250002886
